Where no end group is shown, it is not given here.

Holding throughout (test): fluorescence polarisation
Background: Polarisation of emitted light reports the rotation of a fluorescent probe.

In assay [1] the target is FITC-conjugated CD3ε peptide (…).
For assay [2], the target named is FITC-conjugated PAK1 peptide (…).
Assay [3] addresses NCK2 full length recombinant protein (WT, tag-free) (mouse, UniProt O55033 1-380).

In the case of “NCK2 2|3|1 full length recombinant protein (SH3-shuffled, tag-free) (from UniProt O55033)”, in assay [1], the fold decrease of binding against WT NCK2 was 2 fold.

In turn, “NCK2 3|1|2 full length recombinant protein (SH3-shuffled, tag-free) (from UniProt O55033)” gave a fold decrease of binding against WT NCK2 in assay [2] of 2 fold.

With “NCK2 3|2|1 full length recombinant protein (SH3-shuffled, tag-free) (from UniProt O55033)”, the fold decrease of binding against WT NCK2 in assay [1] was determined as 2 fold.

B1: FITC-conjugated PAK1 peptide (DIQDKPPAPPMRNTST) (peptide)
peptide: DIQDKPPAPPMRNTST
modifications: also: FITC-conjugated, site not given here
With B1, the binding result in assay [3] was “binds”.

B2: FITC-conjugated CD3ε peptide (RGQNKERPPPVPNPDY) (peptide)
peptide: RGQNKERPPPVPNPDY
modifications: also: FITC-conjugated, site not given here
For the molecule B2, the binding result in assay [3] is “binds”.

These data come from article doi:10.1101/2020.05.18.103002 (bioRxiv, 2020).
